According to article PMC5882628, “Development of a Cell-Based Assay to Assess Binding of the proNGF Prodomain to Sortilin” (Cellular and Molecular Neurobiology, 2017):

Experiment: Precipitation and sticking to culture dishes; reagent stability
Format: physicochemical
Conditions: GSTpro versus proNGF
Description: This behavior led to more diffuse staining compared to GSTpro. […] Given the complications driven by the biophysical properties of proNGF, we pursued GSTpro as a source of the pro binding domain.
Due to reasons of stability of the proNGF protein and the specificity of binding, we recommend use of GSTpro in the assay, rather than recombinant proNGF. […] Although not formally tested by us, there may have been inconsistencies in the batches of proNGF protein used in the studies. As extracellular fluorescence could increase false positive cells by automated detection, proNGF was less reliable as a reagent in our assay (not shown). Both GSTpro and proNGF compete for binding to the sortilin receptor, it is likely that their binding sites are similar or at least overlap. Detection with GSTpro was more specific than with proNGF. […] The assay has the potential to use a tenfold lower concentration of GSTpro (5 nM, cf. Fig. 6v).

B1: GSTpro: fusion of Glutathione S-transferase (GST) merged at the C-terminal of GST to the pro part (19–121) of human proNGF (protein)
chain: EPHSESNVPAGHTIPQAHWTKLQHSLDTALRRARSAPAAAIAARVAGQTRNITVDPRLFKKRRLRSPRVLFSTQPPREAADTQDLDFEVGGAAPFNRTHRSKR
modifications: left off: GST, N-terminal, kept
notes: fusion of Glutathione S-transferase (GST) merged at the C-terminal of GST to the pro part (19–121) of human proNGF
With B1 the “stability compared to proNGF (in words)” value was “more stable than proNGF”.
